The values that follow come from patent US20160361434A1 (COVALAB, published 2016).

Where no end group is shown, it is not given here. A value given as a limit tells only on which side of the number the result lay.

This experiment concerns the target T1, Recombinant microbial transglutaminase (mTG) (Streptoverticillium mobaraense, UniProt P81453 77-407).
T1 sequence (looked up): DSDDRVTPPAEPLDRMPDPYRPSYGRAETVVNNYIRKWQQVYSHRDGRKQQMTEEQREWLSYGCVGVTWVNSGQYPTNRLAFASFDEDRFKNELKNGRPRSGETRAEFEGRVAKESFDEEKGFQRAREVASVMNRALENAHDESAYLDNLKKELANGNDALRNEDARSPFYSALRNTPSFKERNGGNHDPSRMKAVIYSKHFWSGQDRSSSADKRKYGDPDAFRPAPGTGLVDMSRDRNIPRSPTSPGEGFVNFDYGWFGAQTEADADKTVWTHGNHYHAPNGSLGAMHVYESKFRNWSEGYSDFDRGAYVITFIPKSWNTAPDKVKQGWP
Put plainly: cell-based or functional assay.

Take PLVQSH (also: biotin tag, position not given here) [bPH6Q4]: the “Kmapp” value worked out at 14.8 µM.

Regarding YEAQR (also: biotinylated, position not given here) [BEST3], the “Kmapp” value turned out to be 0.08 µM.

As to WPDVYSQH (also: biotin tag, position not given here) [bWH8Q7], the “Kmapp” value stood at 11.4 µM.

For WPAQR (also: biotinylated, position not given here) [BEST4], the “Kmapp” value was found to be 0.225 µM.

On to HDLMWPDVYSQH (also: biotin tag, position not given here) [bHH12Q11], for which the “Kmapp” value was 3.08 µM.

For the molecule YEAQK (also: biotinylated, position not given here) [BEST2], the “Kmapp” value came out at 0.114 µM.

For the molecule FWIQE (also: biotin tag, position not given here) [bFE5Q4], the “Kmapp” value was determined as 5 µM.

For the molecule DVYSQH (also: biotin tag, position not given here) [bDH6Q5], the “Kmapp” value worked out at 33.1 µM.

LLTLPSVQEQN (also: biotin tag, position not given here) [bLN11Q8-10]: the “Kmapp” value is 172 µM.

On to YEIQR (also: biotinylated, position not given here) [BEST1], for which the “Kmapp” value was 0.086 µM.

Regarding SPLKHQEY (also: biotin tag, position not given here) [bSY8Q6], the “Kmapp” value was greater than 50 µM.
